# Results published in US20030215913A1 (published 2003).
# T1: LP226 (human, UniProt Q6WN34 26-429, limits assumed)
# T1 construct: Secreted chordin-like protein; the cleavage site was not determined by experiment; also called LP226 polypeptide; LP polypeptide
# T1 sequence: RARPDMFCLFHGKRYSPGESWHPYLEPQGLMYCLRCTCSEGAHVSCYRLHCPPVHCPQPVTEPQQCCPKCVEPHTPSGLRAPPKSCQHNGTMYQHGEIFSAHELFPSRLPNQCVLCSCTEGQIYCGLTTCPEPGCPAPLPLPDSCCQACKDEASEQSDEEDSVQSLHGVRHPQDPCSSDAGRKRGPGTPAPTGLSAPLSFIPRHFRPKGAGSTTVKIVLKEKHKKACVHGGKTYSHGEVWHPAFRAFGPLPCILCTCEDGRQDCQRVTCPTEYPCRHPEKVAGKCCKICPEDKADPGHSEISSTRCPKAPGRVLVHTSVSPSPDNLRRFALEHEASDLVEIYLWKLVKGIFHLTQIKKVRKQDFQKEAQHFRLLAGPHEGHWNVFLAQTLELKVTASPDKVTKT
# Biological target: T1, LP226
# Experiment: BIAcore 2000 SPR, LP226 amine-coupled to CM5 chip, ligand injected
# Protocol: A BIAcore 2000 instrument is used to detect real-time binding between immobilized LP226 and various TGF-beta and BMP proteins. LP226 is diluted to a concentration of […] in 10 mM sodium acetate buffer at pH 5.0. LP226 is immobilized to a CM5 sensor chip using the amine coupling method. Follistatin, containing BSA, is immobilized as a positive control.
# TGF-beta and BMP proteins are diluted in HBS-EP buffer. Samples are injected over LP226 and control surfaces using the kinject method. Samples containing 5 µg/mL and 1 μg/mL of protein are injected at 30 μL/min for three minutes with a ninety second dissociation time. LP226 and control surfaces are then regenerated with glycine-hydrochloride at pH 3.0.
row,binding result,Binder
1,no binding,"fas-ligand (ligand, UniProt P48023 134-281, looked up, Negative control injected over the LP226 surface; also called negative control) PSPPPEKKELRKVAHLTGKSNSRSMPLEWEDTYGIVLLSGVKYKKGGLVINETGLYFVYSKVYFRGQSCNNLPLSHKVYMRNSKYPQDLVMMEGKMMSYCTTGQMWARSSYLGAVFNLTSADHLYVNVSELSLVNFEESQTFFGLYKL"
2,no binding (tested: 5 g/mL and 1 µg/mL),"BMP-6 (ligand, UniProt P22004 382-513, looked up) QQSRNRSTQSQDVARVSSASDYNSSELKTACRKHELYVSFQDLGWQDWIIAPKGYAANYCDGECSFPLNAHMNATNHAIVQTLVHLMNPEYVPKPCCAPTKLNAISVLYFDDNSNVILKKYRNMVVRACGCH"
3,no binding (tested: 5 g/mL and 1 µg/mL),"BMP-5 (ligand, UniProt P22003 317-454, looked up) AANKRKNQNRNKSSSHQDSSRMSSVGDYNTSEQKQACKKHELYVSFRDLGWQDWIIAPEGYAAFYCDGECSFPLNAHMNATNHAIVQTLVHLMFPDHVPKPCCAPTKLNAISVLYFDDSSNVILKKYRNMVVRSCGCH"
